In experiment [1] the target is T1, CD38 on CD38(+) cancer cells (RPMI8226, Raji, Daudi) (UniProt P28907 1-300, limits assumed).
T1 construct: whole, on cells; Endogenous CD38 on tumour cell lines; also called CD38(+) tumor cells; CD38(+) Raji cells
The experiment can be described thus: flow cytometry on Raji cells, detection with an anti-his tag antibody.

In experiment [2] the target is T2, human CD38 antigen (recombinant human CD38 protein) (human, UniProt P28907 43-300, limits assumed). The experiment can be described thus: SPR, construct captured on immobilised protein-L (HC30M chip), human CD38 antigen flown over. For orientation: SPR reads the build-up and loss of mass on a sensor chip optically.
Experiment [3] concerns the target T2, human CD38 antigen (recombinant human …). The experiment can be described thus: SPR, antibody captured on Protein-L chip, human CD38 in solution; humanized 8DC3.
Experiment [4] shares this target. The experiment can be described thus: SPR, His-tagged SADA construct captured on a NiHC200M chip, recombinant human CD38 protein injected.
Experiment [5] has as its target T1, CD38 on CD38(+) cancer cells (RPMI8226, …). Kind of experiment: flow cytometry on RPMI 8226 cells, detection with an anti-his tag antibody. For orientation: A flow cytometer gives signals particle by particle.
Experiment [6] has as its target T2, human CD38 antigen (recombinant human …). The experiment can be described thus: SPR, His-tagged SADA captured on NiHC200M chip, recombinant human CD38 in solution; average.
For experiment [7] the target is unchanged. Kind of experiment: SPR, antibody captured on Protein-L chip, human CD38 in solution.
Experiment [8] has the same target. The experiment can be described thus: SPR, His-tagged SADA construct captured on a NiHC200M chip, recombinant human CD38 protein injected. The source holds these as a separate data set.
For experiment [9] the target is unchanged. Kind of experiment: SPR, antibody captured on Protein-L chip, human CD38 in solution; murine antibody, not named.

B1: 8DC-3 (anti-CD38 scFv-(G4S)4-huC825 anti DOTA scFv-linker-P53-linker-His tag) (bispecific antibody)
chain: QVQLQESGPGLVKPSETLSLTCTVSGFSLTSYGVHWVRQPPGKGLEWIGVMWRGGSTDYNAAFKSRVTISKDNSKNQVSLKLSSVTAADTAVYYCAKSMITTGFVMDSWGQGTLVTVSSGGGGSGGGGSGGGGSGGGGSGGGGSGGGGSDIQLTQSPSSLSASVGDRVTITCKASEDIYNRLTWYQQKPGKAPKLLISGATSLETGVPSRFSGSGSGKDYTFTISSLQPEDFATYYCQQYWSNPYTFGQGTKLEIKGGGGSGGGGSGGGGSGGGGSHVQLVESGGGLVQPGGSLRLSCAASGFSLTDYGVHWVRQAPGKGLEWLGVIWSGGGTAYNTALISRFTISRDNSKNTLYLQMNSLRAEDTAVYYCARRGSYPYNYFDAWGCGTLVTVSSGGGGSGGGGSGGGGSGGGGSGGGGSGGGGSQAVVTQEPSLTVSPGGTVTLTCGSSTGAVTASNYANWVQQKPGQCPRGLIGGHNNRPPGVPARFSGSLLGGKAALTLLGAQPEDEAEYYCALWYSDHWVIGGGTKLTVLGTPLGDTTHTSGKPLDGEYFTLQIRGRERFEMFRELNEALELKDAQAGKEPGGSGGAPHHHHHH
notes: SADA construct with VL5 and VH8
For B1, the EC50 (read off the curve) (usually the concentration needed to bring the measured effect to its halfway point) in experiment [1] is about 0.06 mg/L. In [2], the koff (commonly the first-order rate constant of dissociation) was determined as 0.00085 s⁻¹ and the kon – broadly, the rate constant with which the complex forms – came out at 27000 M⁻¹ s⁻¹. In experiment [3], the Kd (commonly the concentration at which binding is half-saturated) was determined as 31 nM.

B2: 8DC-4 (anti-CD38 scFv-(G4S)4-huC825 anti DOTA scFv-linker-P53-linker-His tag) (bispecific antibody)
chain: QVQLQESGPGLVKPSETLSLTCTVSGFSLTSYGVHWVRQPPGKCLEWIGVMWRGGSTDYNAAFKSRVTISKDNSKNQVSLKLSSVTAADTAVYYCAKSMITTGFVMDSWGQGTLVTVSSGGGGSGGGGSGGGGSGGGGSGGGGSGGGGSDIQLTQSPSSLSASVGDRVTITCKASEDIYNRLTWYQQKPGKAPKLLISGATSLETGVPSRFSGSGSGKDYTFTISSLQPEDFATYYCQQYWSNPYTFGCGTKLEIKGGGGSGGGGSGGGGSGGGGSHVQLVESGGGLVQPGGSLRLSCAASGFSLTDYGVHWVRQAPGKGLEWLGVIWSGGGTAYNTALISRFTISRDNSKNTLYLQMNSLRAEDTAVYYCARRGSYPYNYFDAWGCGTLVTVSSGGGGSGGGGSGGGGSGGGGSGGGGSGGGGSQAVVTQEPSLTVSPGGTVTLTCGSSTGAVTASNYANWVQQKPGQCPRGLIGGHNNRPPGVPARFSGSLLGGKAALTLLGAQPEDEAEYYCALWYSDHWVIGGGTKLTVLGTPLGDTTHTSGKPLDGEYFTLQIRGRERFEMFRELNEALELKDAQAGKEPGGSGGAPHHHHHH
notes: SADA construct with VL8 and VH11 (extra disulfide in the anti-CD38 scFv), VH-VL order
In the case of B2, the “EC50 (read off the curve)” value in experiment [1] was about 0.05 mg/L; in [5] it was about 0.07 mg/L. For the same molecule, the results for the Kd in experiment [4] and in experiment [6] were 0.532 nM and 0.28 nM, respectively. Moreover, the kon in experiment [6] was determined as 89000 M⁻¹ s⁻¹.

B3: 8DC-2 (anti-CD38 scFv-(G4S)4-huC825 anti DOTA scFv-linker-P53-linker-His tag) (bispecific antibody)
chain: QVQLQESGPGLVRPSQTLSLTCTVSGFTFTSYGVHWVRQPPGRGLEWIGVMWRGGSTDYNAAFMSRVTMLVDTSKNQFSLRLSSVTAADTAVYYCAKSMITTGFVMDSWGQGSLVTVSSGGGGSGGGGSGGGGSGGGGSGGGGSGGGGSDIQMTQSPSSLSASVGDRVTITCKASEDIYNRLTWYQQKPGKAPKLLISGATSLETGVPSRFSGSGSGTDFTFTISSLQPEDIATYYCQQYWSNPYTFGQGTKVEIKGGGGSGGGGSGGGGSGGGGSHVQLVESGGGLVQPGGSLRLSCAASGFSLTDYGVHWVRQAPGKGLEWLGVIWSGGGTAYNTALISRFTISRDNSKNTLYLQMNSLRAEDTAVYYCARRGSYPYNYFDAWGCGTLVTVSSGGGGSGGGGSGGGGSGGGGSGGGGSGGGGSQAVVTQEPSLTVSPGGTVTLTCGSSTGAVTASNYANWVQQKPGQCPRGLIGGHNNRPPGVPARFSGSLLGGKAALTLLGAQPEDEAEYYCALWYSDHWVIGGGTKLTVLGTPLGDTTHTSGKPLDGEYFTLQIRGRERFEMFRELNEALELKDAQAGKEPGGSGGAPHHHHHH
notes: SADA construct with VL7 and VH10 (published huAT13/5 of Ellis et al.)
As for B3, in [2], the koff was found to be 0.001 s⁻¹ and the kon was found to be 6400 M⁻¹ s⁻¹. Also, the dissociation constant Kd in [7] turned out to be 163 nM.

B4: 8DC-5 (anti-CD38 scFv-(G4S)4-huC825 anti DOTA scFv-linker-P53-linker-His tag) (bispecific antibody)
chain: DIQLTQSPSSLSASVGDRVTITCKASEDIYNRLTWYQQKPGKAPKLLISGATSLETGVPSRFSGSGSGKDYTFTISSLQPEDFATYYCQQYWSNPYTFGCGTKLEIKGGGGSGGGGSGGGGSGGGGSGGGGSGGGGSQVQLQESGPGLVKPSETLSLTCTVSGFSLTSYGVHWVRQPPGKCLEWIGVMWRGGSTDYNAAFKSRVTISKDNSKNQVSLKLSSVTAADTAVYYCAKSMITTGFVMDSWGQGTLVTVSSGGGGSGGGGSGGGGSGGGGSHVQLVESGGGLVQPGGSLRLSCAASGFSLTDYGVHWVRQAPGKGLEWLGVIWSGGGTAYNTALISRFTISRDNSKNTLYLQMNSLRAEDTAVYYCARRGSYPYNYFDAWGCGTLVTVSSGGGGSGGGGSGGGGSGGGGSGGGGSGGGGSQAVVTQEPSLTVSPGGTVTLTCGSSTGAVTASNYANWVQQKPGQCPRGLIGGHNNRPPGVPARFSGSLLGGKAALTLLGAQPEDEAEYYCALWYSDHWVIGGGTKLTVLGTPLGDTTHTSGKPLDGEYFTLQIRGRERFEMFRELNEALELKDAQAGKEPGGSGGAPHHHHHH
notes: SADA construct with VL8 and VH11 (extra disulfide in the anti-CD38 scFv), VL-VH order
Take B4: the results for the “EC50 (read off the curve)” value in experiment [1] and in experiment [5] were about 0.07 mg/L and about 0.05 mg/L, respectively. Further, the Kd is 0.17 nM in experiment [6] and 0.214 nM in experiment [8]. For the same molecule, the kon in experiment [6] stood at 96000 M⁻¹ s⁻¹.

B5: 8DC-1 (anti-CD38 scFv-(G4S)4-huC825 anti DOTA scFv-linker-P53-linker-His tag) (bispecific antibody)
chain: QVQLKQSGPGLVHPSQSLSITCTVSGFSLTSYGVHWVRQSPGKGLEWLGVMWRGGSTDYNAAFMSRLNITKDNSKRQVFFKMNSLQADDTAIYYCAKSMITTGFVMDSWGQGTSVTVSSGGGGSGGGGSGGGGSGGGGSGGGGSGGGGSDIQLTQSPSSFSVSLGDRVTITCKASEDIYNRLTWYQQKPGNAPRLLISGATSLETGVPSRFSGSGSGKDYTLSITSLQTEDVATYYCQQYWSNPYTFGGGTKLEIRGGGGSGGGGSGGGGSGGGGSHVQLVESGGGLVQPGGSLRLSCAASGFSLTDYGVHWVRQAPGKGLEWLGVIWSGGGTAYNTALISRFTISRDNSKNTLYLQMNSLRAEDTAVYYCARRGSYPYNYFDAWGCGTLVTVSSGGGGSGGGGSGGGGSGGGGSGGGGSGGGGSQAVVTQEPSLTVSPGGTVTLTCGSSTGAVTASNYANWVQQKPGQCPRGLIGGHNNRPPGVPARFSGSLLGGKAALTLLGAQPEDEAEYYCALWYSDHWVIGGGTKLTVLGTPLGDTTHTSGKPLDGEYFTLQIRGRERFEMFRELNEALELKDAQAGKEPGGSGGAPHHHHHH
notes: SADA construct with the murine AT13/5 VH and VL; also called the murine antibody
B5: the results for the “EC50 (read off the curve)” value in [1] and in [5] were about 0.05 mg/L and about 0.06 mg/L, respectively. Moreover, the Kd in [9] was 7.4 nM. Moreover, the off-rate (koff) in experiment [2] was 0.0012 s⁻¹. Further, the on-rate (kon) in experiment [2] was found to be 160000 M⁻¹ s⁻¹.

The values above are taken from US20230312742A1 (Y MABS THERAPEUTICS, published 2023).
